# Test results taken from the supplement of paper PMC9170038.
# Test system: MS2 coat protein
# Test: apparent KD of MS2 coat protein; designed switch direction (-1 OFF switch, 1 ON switch): 1; higher = weaker reporter binding
# Method in brief: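 On Illumina chips, designed RNA switches with common flanks were made by stalled E. coli RNA polymerase. Titrations with SNAP-549-labelled MS2 coat protein, doubling from 0.7 or 1.5 nM to 3 µM, were done with no input, with 200 uM small-molecule ligand, or with an oligonucleotide input. Apparent KD is the median per design over clusters, from curve fits of normalised cluster fluorescence.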
# [1] = Eterna round: R95, input ligand: FMN 200 uM
# [2] = Eterna round: R95, input ligand: microRNA oligo, concentration not stated
# [3] = Eterna round: R95, input ligand: none
# [4] = input ligand: microRNA oligo, concentration not stated
Sequence,apparent KD of MS2 coat protein [1] [µM],apparent KD of MS2 coat protein [2] [µM],apparent KD of MS2 coat protein [3] [µM],apparent KD of MS2 coat protein (input ligand: FMN 200 uM) [µM],apparent KD of MS2 coat protein [4] [µM],apparent KD of MS2 coat protein (input ligand: none) [µM]
AAGUAACAUGAGGAUCACCCAUGUGAGGUGAGCGUAGGAUAUCGAGGAGGAAGGGUAGGUCGAGAAGGACGAGAAG [JR_SS1_Sub096] (puzzle: Same State 1),0.127,0.162,0.247,,,
GGUUUAGUCAGGUGCAGUUGCACCUGAAAACAUGAGGAUCACCCAUGUUUGGGACAAGCUUUGCUCCUCGUCUUGCA [Orinen] (puzzle: Sensor for hsa-mir-208a),0.341,0.0706,0.545,,,
"AUUAUUUAUGCAGGAUAUGAUUAACAUGAGGAUCACCCAUGUGGUGUUGUGAGUAAGGAGAGUGAUCAGAAGGGCAUUUUUUUU [JMF's solution 22] (Eterna round: R96, puzzle: Same State NG 2)",,,,0.673,0.377,0.447
"GGAUGAUAAAUAGGAUAUUAAUUGUAAUUAGGUUAAGAAGGAUUAAUGAUUUAAACGACCAGUUACAUGAGGAUCACCCAUGUU [JR_SSNG1_Sub088] (Eterna round: R96, puzzle: Same State NG 1)",,,,,0.108,
"UUGCGCUGUCGAGAGGAUAUGCGGUGUUGGACAUGAGGAUCACCCAUGUUAGCGAUUGCUUUACGGUAGAAGGCUCUUCAGCUGC [salish99_ss2_r3_098] (Eterna round: R96, puzzle: Same State 2)",,,,0.074,0.0501,0.0828
"UGUUAGUAGUGAGGAUAUACAUACACCUUACAUGAGGAUCACCCAUGUUUUAAGAUUGAUAGAUAGUAGAAGGCACAUGAUGAU [JR_SSNG2_Sub042] (Eterna round: R96, puzzle: Same State NG 2)",,,,,0.0382,
"CAAUAAUGUGGAGGAUAUGGGAGGUCAACACAUGAGGAUCACCCAUGUAGAUAGUGAGGCCAAGCCUAGAAGGCCACAAUCAGC [Eternabot solution 20] (Eterna round: R96, puzzle: Same State NG 2)",,,,0.0126,0.0655,0.0959
"GCGAGGAUAUGGAGAGGAUCACCCUCUAGAAGGCGCGAAGGCGAGGAUAUGGAGAGGAUCACCCUCUAGAAGGCGCACUUCUCU [pwkr ssNG3 DX 2xF5 +2xFMN.5] (Eterna round: R96, puzzle: Same State NG 3)",,,,0.222,0.162,0.235
"AAAAUGAGUAUAUGAAAACAAGCUUUUUAACAUGAGGAUCACCCAUGUACUCGUCUUAUAAGCAGUCGAAAGACUGC [hsa-mir-208a sensor: 77] (Eterna round: R96, puzzle: Sensor for hsa-mir-208a)",,,,0.0948,0.0172,0.0966
"GUUACAUGAGGAUCACCCAUGUAUGUGUGGGAGUAAGUGUCUUAGGAUAUCUGUUAUGUAAUUUAAGAGAAGGAAGAUUGUUGU [JMF's solution 34] (Eterna round: R96, puzzle: Same State NG 3)",,,,0.282,0.3,0.296
"GGGAGACCUCAAGGAUAUGCUACCGUUUCGGUAGCAGAAGGUGAUCACAUGAGGAUCACCCAUGUAUGCAUGCGUGAGCGUGCU [JL SSNG1 3.58] (Eterna round: R96, puzzle: Same State NG 1)",,,,0.0794,0.0116,0.0678
"UGUUGUAUUACAGGAUAUCUAGUAUUUUUUUUUAGAGAAGGGUAUUCACAUGAGGAUCACCCAUGUAUAUACGAGGAAGUUGUG [JMF's solution 46] (Eterna round: R96, puzzle: Same State NG 1)",,,,,0.0461,
"ACAUGAGGAUCACCCAUGUGAAAAGACCUAGAGGUGAAGCCGCAGGAUAUAUCACAAACGAGAAGAUAGAAGGGCGUACGCAUG [Eternabot solution 9] (Eterna round: R96, puzzle: Same State NG 3)",,,,0.0897,0.0605,0.0721
"GUGGUCAGACAUGAGGAUCACCCAUGUGGAAUAAAUAAGGGUUAGGAUAUCGAAUAUAGGAUAUACGAGAAGGGAUGGUUGGUG (Eterna round: R96, puzzle: Same State NG 3)",,,,0.135,0.0953,0.109
"UUAAUUAAUUAAUUAUACAUGAGGAUCACCCAUGUAAGUGAUCAGGAUAUCAGCUCGUUUAGAGCUGAGAAGGGAUACAUGAAU [SSNG3/12-A3] (Eterna round: R96, puzzle: Same State NG 3)",,,,0.0916,0.0859,0.143
"CGCAUCCUUGUUACAUGAGGAUCACCCAUGUUUUCGAGUGGAGAGGAUAUCGUAACAGUAUUUUUCGAGAAGGCUCUAUAGUAU [JR_SSNG3_Sub081] (Eterna round: R96, puzzle: Same State NG 3)",,,,0.0521,0.039,0.0573

Sequence,apparent KD of MS2 coat protein [1] [µM],apparent KD of MS2 coat protein [2] [µM],apparent KD of MS2 coat protein [3] [µM],apparent KD of MS2 coat protein (input ligand: FMN 200 uM) [µM],apparent KD of MS2 coat protein [4] [µM],apparent KD of MS2 coat protein (input ligand: none) [µM]
"UGAAUGGUGAUAGGAUAUACAUGAGGAAUCCUCGUAGAAGGAUCACGACAUGAGGAUCACCCAUGUAGCCGUCCGUAGACGGCU [salish99_SSNG1_r04_003] (Eterna round: R96, puzzle: Same State NG 1)",,,,0.192,0.0759,0.255
"GGUAGGUUACUACCAAUACAUGAGGAUCACCCAUGUUAUCAUGAGGAUAUGGUACCUAUUUGGUACCAGAAGGCAUGUAUAAUU [Fiskers NG3ss - 19] (Eterna round: R96, puzzle: Same State NG 3)",,,,0.0436,0.0626,0.0605
"GGUAGGUUACUACCAAACAUGAGGAUCACCCAUGUAAGUGGGAAGGAUAUGGUACCUUUUAGGUACCAGAAGGUCCAUAUAAUU [JL Fiskers NG3ss - 2 mod 6] (Eterna round: R96, puzzle: Same State NG 3)",,,,0.177,2.45,3.22
"UUAUUCUAUAUAGGAUAUUGAUGUAAUUUAUUUCAAGAAGGAUAUACAUGAGGAUCACCCAUGUUGGAUAGGGUUAGUUUGUUU [JR_SSNG1_Sub080] (Eterna round: R96, puzzle: Same State NG 1)",,,,,0.0582,
"UGGUACAUGGGAGGAUAUCUCAUGGUGACAUGAGGAUCACCCAUGUAGUUGGAGCCGAAAGGCUGAGAGAAGGCCCAUGUACCU [JL SSNG1 3.75] (Eterna round: R96, puzzle: Same State NG 2)",,,,0.0594,0.098,0.0785
"AAUUUAAUACAUGAGGAUCACCCAUGUAAUACUUGUAAGAUCAAGGAUAUCAGCUCGAAUAGAGCUGAGAAGGUGAUCACAUGU [SSNG3/19-D1] (Eterna round: R96, puzzle: Same State NG 3)",,,,,0.0249,
"GUGCUCGUGUAAGGAUAUGCAGCCGUUUCGGCUGCAGAAGGUACUAUAAUACAUGAGGAUCACCCAUGUCUCUUUUGUUUGGUG [salish99_SSNG1_r04_907] (Eterna round: R96, puzzle: Same State NG 1)",,,,0.235,0.111,0.222
"UAUCCAUAGAUAGGAUAUUAGAGAACAUGAGGAUCACCCAUGUUUGGCUUGGUUUUAAGCCAAUCUAAGAAGGAUCUUGAUGAA [SameState NG2 #10] (Eterna round: R96, puzzle: Same State NG 2)",,,,0.0221,0.0665,0.0721
"UAAAUGAAGUAAGGAUAUACAUGAGGAUCACUCGUAGAAGGUACUAUACAUGAGGAUCACCCAUGUGCCGGUCAGAAGACUGGA [Mat - Same State NG 1 - JL mod - D6] (Eterna round: R96, puzzle: Same State NG 1)",,,,0.804,0.533,0.943
"AAAAGAAACAUGUACCUGAGUACAUGAAAACAUGAGGAUCACCCAUGUAACAAGUUGGGUGCUUGUCUUAUAAGAAA [JL pocket 4] (Eterna round: R96, puzzle: Sensor for hsa-mir-208a)",,,,0.71,0.0667,0.822
"GGAGCCGGCCUAGGAUAUUUCAUAAAAAUACAUGAGGAUCACCCAUGUAGGCCAGAAGGCCUUGGGAAGAAGGAGGUCGGCUCC [Loop Effect - U29] (Eterna round: R96, puzzle: Same State NG 2)",,,,0.0107,0.015,0.0173
"GCGAAGAGGUAAGGAUAUUCAUGGCAUAGACAUGAGGAUCACCCAUGUAGGAGACGAAUUAGAAGGAAGAAGGUACCAGGACGC [AK SSNG2-V2-18] (Eterna round: R96, puzzle: Same State NG 2)",,,,0.137,0.111,0.187
AACAAUCUAUCUGAGGAUAUCAUGAAAUAAACAUGAGGAUCACCCAUGUGCAGUAAAACUGCAUAUGAGAAGGCAGAUAGAUUGA [salish99_ss2_r3_039] (puzzle: Same State 2),0.0933,1.85,1.82,,,
"GGUACAAAUACAGGAUAUGCUAUCCUUUGGGUAGCAGAAGGGUGGUAACAUGAGGAUCACCCAUGUGUGCCAGGGCGUGAGCCC [JL SSNG1 1.98] (Eterna round: R96, puzzle: Same State NG 1)",,,,0.387,0.206,0.657
"UUGAGAUGUACAGGAUAUGGUGAGGAUCACCCACUAGAAGGGUGCACAUGUGAAUCGGACAUGAGGAUCACCCAUGUAGGGCGU (Eterna round: R96, puzzle: Same State NG 1)",,,,0.187,0.207,0.369
